Measured values reported in patent US20140329995A1.

Key:
[1] = target: Gammanorm 165 mg/ml (Octapharma), human polyclonal IgG (human); assay: column breakthrough, ligand on agarose base matrix A, ligand density […], residence time 2.4 min, 1 mg/ml IgG
[2] = target: Gammanorm 165 mg/ml (Octapharma), human polyclonal IgG (human); assay: column breakthrough, ligand on agarose base matrix A, ligand density […], residence time 6.0 min, 1 mg/ml IgG
[3] = target: Gammanorm 165 mg/ml (Octapharma), human polyclonal IgG (human); assay: column breakthrough, ligand on agarose base matrix A, ligand density […], residence time 10.0 min, 1 mg/ml IgG
[4] = target: Gammanorm 165 mg/ml (Octapharma), human polyclonal IgG (human); assay: column breakthrough, ligand on agarose base matrix A, ligand density 14.5 mg/ml, residence time 2.4 min, 1 mg/ml IgG
[5] = target: Gammanorm 165 mg/ml (Octapharma), human polyclonal IgG (human); assay: column breakthrough, ligand on agarose base matrix A, ligand density 14.5 mg/ml, residence time 6.0 min, 1 mg/ml IgG
[6] = target: Gammanorm 165 mg/ml (Octapharma), human polyclonal IgG (human); assay: column breakthrough, ligand on agarose base matrix B, ligand density 11.3 mg/ml, residence time 2.4 min, 1 mg/ml IgG
[7] = target: Gammanorm 165 mg/ml (Octapharma), human polyclonal IgG (human); assay: column breakthrough, ligand on agarose base matrix B, ligand density 11.3 mg/ml, residence time 6.0 min, 1 mg/ml IgG
[8] = target: Gammanorm 165 mg/ml (Octapharma), human polyclonal IgG (human); assay: column breakthrough, ligand on agarose base matrix A, ligand density 14.5 mg/ml, residence time 10.0 min, 1 mg/ml IgG

Qb10 (dynamic binding capacity at 10% breakthrough) [1]: 35.1 mg/ml resin
Qb80 (dynamic binding capacity at 80% breakthrough) [1]: 62.7 mg/ml resin
Qb10 (dynamic binding capacity at 10% breakthrough) [2]: 53.4 mg/ml resin
Qb80 (dynamic binding capacity at 80% breakthrough) [2]: 68.7 mg/ml resin
Qb10 (dynamic binding capacity at 10% breakthrough) [3]: 64.5 mg/ml resin
Qb80 (dynamic binding capacity at 80% breakthrough) [3]: 74.5 mg/ml resin
Qb10 (dynamic binding capacity at 10% breakthrough) [4]: 31.2 mg/ml resin
Qb80 (dynamic binding capacity at 80% breakthrough) [4]: 80.6 mg/ml resin
Qb10 (dynamic binding capacity at 10% breakthrough) [5]: 61.8 mg/ml resin
Qb80 (dynamic binding capacity at 80% breakthrough) [5]: 103 mg/ml resin
Qb10 (dynamic binding capacity at 10% breakthrough) [6]: 47 mg/ml resin
Qb80 (dynamic binding capacity at 80% breakthrough) [6]: 76.9 mg/ml resin
Qb10 (dynamic binding capacity at 10% breakthrough) [7]: 68 mg/ml resin
Qb80 (dynamic binding capacity at 80% breakthrough) [7]: 82.8 mg/ml resin
Qb10 (dynamic binding capacity at 10% breakthrough) [8]: 76.7 mg/ml resin
Qb80 (dynamic binding capacity at 80% breakthrough) [8]: 103 mg/ml resin
Substance: Mutant Z(N23T)6: ligand hexamer containing six copies of protein Z, each containing the N23T substitution (designed binder)
